This assay relates to PPO-deficient BT3 E. coli (ΔPPO). Nature of the assay: PPO-inhibiting herbicide tolerance test of PPO variants in E. coli (growth on herbicide-containing LB agar). As to conditions: CyPPO19 variants in BT3 (ΔPPO) E. coli; LB agar with 0 to 2,000 μM herbicide, 37° C., dark, 16-20 hours. In kind it is cell-based. Put shortly:
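Transformants were grown to OD600 0.5–1, adjusted to OD600=0.5 and spotted as 10-fold dilutions on LB agar with ampicillin (100 μg/mL) and 0 to 2,000 μM herbicide. Plates were kept at 37° C in the dark for 16-20 hours; growth was scored relative to wild type, one '+' per 10-fold resistance.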

Changes are numbered by the printed parent chain. Numbers in names are those of the source.

B1: CyPPO19 V165S + F360T: variant of CyPPO19 PPO protein (SEQ ID NO: 1) (protein)
chain: MSEVDVAIVGGGLSGLSLAWRLQQSAPQYSVVLLEASDRLGGNITTQTAEGFVWELGPNSFAPTPALLQLIAEVGLQSELIRGDRHLPRYIYWRGQLYPLQPTRPLALATSNLLSPWGKVRAALGALGFVPPYLGSGDESVNSFFRRHLGQEVAERLVAPFVSGSYAGDPQQLSAAAAFRRIAQLEKLGGGLIAGALHLRRQQAPKPKPPTSVQMRPGELGSFKEGLAALPRAIAQQLKAPIHLQTPVQEITPDPKGGYLLRSGEQTWRARSVVLATPAYQTAELVAPFQPAIARVLATIPYPTVACVVLAYPAGLGRSVRPGFGVLIPRSQGIRTLGTIWSSCLFPQRTPAGWQVFTSTIGGATDPDLASLSEEAIVQQVQQDLNRLLDLPAAKARLLGMKVWRRAIPQYMVGYPEQWQQVTHALSQTPGLFLCSNYAEGVALGDRVEHGNRTAAAVAAYLSGGQP
modifications: Synthetic_PPO of Thermosynechococcus elongatus PKUAC-SCTE542 (comprising GenBank No. CP032152.1)
Consider B1, for which the “tolerance level relative to wild type, Carfentrazone” value is “+ (‘+’ per each 10-fold resistance)”; the “tolerance level relative to wild type, Flumioxazin” value was “+++ (‘+’ per each 10-fold resistance)”; the “tolerance level relative to wild type, Fomesafen” value is on record as “+ (‘+’ per each 10-fold resistance)”; the “tolerance level relative to wild type, Oxyfluorfen” value is on record as “+ (‘+’ per each 10-fold resistance)”. In addition, the “tolerance level relative to wild type, Saflufenacil” value was “+++ (‘+’ per each 10-fold resistance)”; the “tolerance level relative to wild type, Sulfentrazone” value was “++ (‘+’ per each 10-fold resistance)”; the “tolerance level relative to wild type, Tiafenacil” value is on record as “++++ (‘+’ per each 10-fold resistance)”.

B2: CyPPO19 A167C + F360I: variant of CyPPO19 PPO protein (SEQ ID NO: 1) (protein)
chain: B1 chain with S165V, A167C, T360I
modifications: Synthetic_PPO of Thermosynechococcus elongatus PKUAC-SCTE542 (comprising GenBank No. CP032152.1)
With B2, the “tolerance level relative to wild type, Carfentrazone” value is recorded as “+ (‘+’ per each 10-fold resistance)”; the “tolerance level relative to wild type, Flumioxazin” value is reported as “++++ (‘+’ per each 10-fold resistance)”; the “tolerance level relative to wild type, Fomesafen” value is listed as “+ (‘+’ per each 10-fold resistance)”; the “tolerance level relative to wild type, Oxyfluorfen” value was “+ (‘+’ per each 10-fold resistance)”. Moreover, the “tolerance level relative to wild type, Saflufenacil” value is recorded as “+++ (‘+’ per each 10-fold resistance)”; the “tolerance level relative to wild type, Sulfentrazone” value is listed as “++ (‘+’ per each 10-fold resistance)”; the “tolerance level relative to wild type, Tiafenacil” value is listed as “++++ (‘+’ per each 10-fold resistance)”.

B3: CyPPO19 A167C + F360V: variant of CyPPO19 PPO protein (SEQ ID NO: 1) (protein)
chain: B1 chain with S165V, A167C, T360V
modifications: Synthetic_PPO of Thermosynechococcus elongatus PKUAC-SCTE542 (comprising GenBank No. CP032152.1)
Consider B3, for which the “tolerance level relative to wild type, Carfentrazone” value is “+ (‘+’ per each 10-fold resistance)”; the “tolerance level relative to wild type, Flumioxazin” value is recorded as “+++ (‘+’ per each 10-fold resistance)”; the “tolerance level relative to wild type, Fomesafen” value was “+ (‘+’ per each 10-fold resistance)”; the “tolerance level relative to wild type, Oxyfluorfen” value is “+ (‘+’ per each 10-fold resistance)”. The “tolerance level relative to wild type, Saflufenacil” value is given as “+++ (‘+’ per each 10-fold resistance)”; the “tolerance level relative to wild type, Sulfentrazone” value is recorded as “+ (‘+’ per each 10-fold resistance)”; the “tolerance level relative to wild type, Tiafenacil” value was “++++ (‘+’ per each 10-fold resistance)”.

B4: CyPPO19 A167L + F360M: variant of CyPPO19 PPO protein (SEQ ID NO: 1) (protein)
chain: B1 chain with S165V, A167L, T360M
modifications: Synthetic_PPO of Thermosynechococcus elongatus PKUAC-SCTE542 (comprising GenBank No. CP032152.1)
B4: the “tolerance level relative to wild type, Carfentrazone” value is “+ (‘+’ per each 10-fold resistance)”; the “tolerance level relative to wild type, Flumioxazin” value is given as “++++ (‘+’ per each 10-fold resistance)”; the “tolerance level relative to wild type, Fomesafen” value is listed as “++ (‘+’ per each 10-fold resistance)”; the “tolerance level relative to wild type, Oxyfluorfen” value is “+ (‘+’ per each 10-fold resistance)”. The “tolerance level relative to wild type, Saflufenacil” value is “++++ (‘+’ per each 10-fold resistance)”; the “tolerance level relative to wild type, Sulfentrazone” value is “++ (‘+’ per each 10-fold resistance)”; the “tolerance level relative to wild type, Tiafenacil” value was “++++ (‘+’ per each 10-fold resistance)”.

B5: CyPPO19 A167C + F360L: variant of CyPPO19 PPO protein (SEQ ID NO: 1) (protein)
chain: B1 chain with S165V, A167C, T360L
modifications: Synthetic_PPO of Thermosynechococcus elongatus PKUAC-SCTE542 (comprising GenBank No. CP032152.1)
For B5, the “tolerance level relative to wild type, Carfentrazone” value was “+ (‘+’ per each 10-fold resistance)”; the “tolerance level relative to wild type, Flumioxazin” value is on record as “+++ (‘+’ per each 10-fold resistance)”; the “tolerance level relative to wild type, Fomesafen” value is reported as “+ (‘+’ per each 10-fold resistance)”; the “tolerance level relative to wild type, Oxyfluorfen” value is “+ (‘+’ per each 10-fold resistance)”. Further, the “tolerance level relative to wild type, Saflufenacil” value was “+++ (‘+’ per each 10-fold resistance)”; the “tolerance level relative to wild type, Sulfentrazone” value is “+ (‘+’ per each 10-fold resistance)”; the “tolerance level relative to wild type, Tiafenacil” value was “+++ (‘+’ per each 10-fold resistance)”.

B6: CyPPO19 A167C + F360M: variant of CyPPO19 PPO protein (SEQ ID NO: 1) (protein)
chain: B1 chain with S165V, A167C, T360M
modifications: Synthetic_PPO of Thermosynechococcus elongatus PKUAC-SCTE542 (comprising GenBank No. CP032152.1)
Regarding B6, the “tolerance level relative to wild type, Carfentrazone” value is reported as “+ (‘+’ per each 10-fold resistance)”; the “tolerance level relative to wild type, Flumioxazin” value was “++++ (‘+’ per each 10-fold resistance)”; the “tolerance level relative to wild type, Fomesafen” value is listed as “+ (‘+’ per each 10-fold resistance)”; the “tolerance level relative to wild type, Oxyfluorfen” value was “++ (‘+’ per each 10-fold resistance)”. The “tolerance level relative to wild type, Saflufenacil” value is “++++ (‘+’ per each 10-fold resistance)”; the “tolerance level relative to wild type, Sulfentrazone” value was “+ (‘+’ per each 10-fold resistance)”; the “tolerance level relative to wild type, Tiafenacil” value is listed as “++++ (‘+’ per each 10-fold resistance)”.

B7: CyPPO19 V305M + F360I: variant of CyPPO19 PPO protein (SEQ ID NO: 1) (protein)
chain: B1 chain with S165V, V305M, T360I
modifications: Synthetic_PPO of Thermosynechococcus elongatus PKUAC-SCTE542 (comprising GenBank No. CP032152.1)
Regarding B7, the “tolerance level relative to wild type, Carfentrazone” value is recorded as “+ (‘+’ per each 10-fold resistance)”; the “tolerance level relative to wild type, Flumioxazin” value was “++++ (‘+’ per each 10-fold resistance)”; the “tolerance level relative to wild type, Fomesafen” value is reported as “+ (‘+’ per each 10-fold resistance)”; the “tolerance level relative to wild type, Oxyfluorfen” value is reported as “+ (‘+’ per each 10-fold resistance)”. In addition, the “tolerance level relative to wild type, Saflufenacil” value is “++++ (‘+’ per each 10-fold resistance)”; the “tolerance level relative to wild type, Sulfentrazone” value was “++ (‘+’ per each 10-fold resistance)”; the “tolerance level relative to wild type, Tiafenacil” value is on record as “++++ (‘+’ per each 10-fold resistance)”.

B8: CyPPO19 A167L + F360T: variant of CyPPO19 PPO protein (SEQ ID NO: 1) (protein)
chain: B1 chain with S165V, A167L
modifications: Synthetic_PPO of Thermosynechococcus elongatus PKUAC-SCTE542 (comprising GenBank No. CP032152.1)
For B8, the “tolerance level relative to wild type, Carfentrazone” value is “+ (‘+’ per each 10-fold resistance)”; the “tolerance level relative to wild type, Flumioxazin” value was “+++ (‘+’ per each 10-fold resistance)”; the “tolerance level relative to wild type, Fomesafen” value is “+ (‘+’ per each 10-fold resistance)”; the “tolerance level relative to wild type, Oxyfluorfen” value was “+ (‘+’ per each 10-fold resistance)”. Also, the “tolerance level relative to wild type, Saflufenacil” value is listed as “+++ (‘+’ per each 10-fold resistance)”; the “tolerance level relative to wild type, Sulfentrazone” value is recorded as “++ (‘+’ per each 10-fold resistance)”; the “tolerance level relative to wild type, Tiafenacil” value was “+++ (‘+’ per each 10-fold resistance)”.

B9: CyPPO19 A167I + F360L: variant of CyPPO19 PPO protein (SEQ ID NO: 1) (protein)
chain: B1 chain with S165V, A167I, T360L
modifications: Synthetic_PPO of Thermosynechococcus elongatus PKUAC-SCTE542 (comprising GenBank No. CP032152.1)
Consider B9, for which the “tolerance level relative to wild type, Carfentrazone” value is listed as “+ (‘+’ per each 10-fold resistance)”; the “tolerance level relative to wild type, Flumioxazin” value is on record as “+++ (‘+’ per each 10-fold resistance)”; the “tolerance level relative to wild type, Fomesafen” value is recorded as “+ (‘+’ per each 10-fold resistance)”; the “tolerance level relative to wild type, Oxyfluorfen” value is recorded as “+ (‘+’ per each 10-fold resistance)”. Also, the “tolerance level relative to wild type, Saflufenacil” value was “+++ (‘+’ per each 10-fold resistance)”; the “tolerance level relative to wild type, Sulfentrazone” value is listed as “+ (‘+’ per each 10-fold resistance)”; the “tolerance level relative to wild type, Tiafenacil” value is “+++ (‘+’ per each 10-fold resistance)”.

For the origin of these results see patent US12698507B2, “Methods and compositions for conferring and/or enhancing herbicide tolerance using protoporphyrinogen IX oxidase of various cyanobacteria or variant thereof” (FarmHannong Co., Ltd., priority 2019, dated 2026).
